Results as given in the supplement of paper PMC11246515.
± gives the standard deviation of the averaged measurements.

Test: total protein half-life in vivo (active degradation + dilution); higher = more stable protein
[1] = E. coli NCM3722 delta-clpP delta-lon delta-hslV, growth: N-lim chemostat, doubling time 6 h
[2] = E. coli NCM3722 delta-clpP, growth: N-lim chemostat, doubling time 6 h
[3] = E. coli NCM3722 delta-hslV, growth: N-lim chemostat, doubling time 6 h
[4] = E. coli NCM3722 delta-lon, growth: N-lim chemostat, doubling time 6 h
[5] = E. coli NCM3722 delta-smpB, growth: N-lim chemostat, doubling time 6 h
[6] = wild type E. coli NCM3722, growth: C-lim chemostat, doubling time 3 h
[7] = wild type E. coli NCM3722, growth: C-lim chemostat, doubling time 6 h
[8] = wild type E. coli NCM3722, growth: C-lim chemostat, doubling time 12 h
[9] = wild type E. coli NCM3722, growth: N-lim chemostat, doubling time 6 h
[10] = wild type E. coli NCM3722, growth: N-lim chemostat, doubling time 12 h
[11] = wild type E. coli NCM3722, growth: P-lim chemostat, doubling time 6 h
[12] = wild type E. coli NCM3722, growth: P-lim chemostat, doubling time 12 h

| Sequence | total protein half-life in vivo [1] [h] | total protein half-life in vivo [2] [h] | total protein half-life in vivo [3] [h] | total protein half-life in vivo [4] [h] | total protein half-life in vivo [5] [h] | total protein half-life in vivo [6] [h] | total protein half-life in vivo [7] [h] | total protein half-life in vivo [8] [h] | total protein half-life in vivo [9] [h] | total protein half-life in vivo [10] [h] | total protein half-life in vivo [11] [h] | total protein half-life in vivo [12] [h] |
| --- | --- | --- | --- | --- | --- | --- | --- | --- | --- | --- | --- | --- |
| MKFIGKLLLYILIALLVAIAGLYFLLQTRWGAEHISAWVSENSDYHLAFGAMDHRFSAPSHIVLENVTFGRDGQPATLVAKSVDIALSSRQLTEPRHVDTILLENGTLNLTDQTAPLPFKADRLQLRDMAFNSPNSEWKLSAQRVNGGVVPWSPKAGKVLGTKAQIQFSAGSLSLNDVPATNVLIEGSIDNDRVTLTNLGADIARGTLTGNAQRNADGSWQVENLRMADIRLQSEKSLTDFFAPLRSVPSLQIGRLEVIDARLQGPDWAVTDLDLSLRNMTFSKDDWQTQEGKLSMNASEFIYGSLHLFDPIINTEFSPQGVALRQFTSRWEGGMVRTSGNWLRDGKTLILDDAAIAGLEYTLPKNWQQLWMETTPGWLNSLQLKRFSASRNLIIDIDPDFPWQLTALDGYGANLTLVTDHKWGVWSGSANLNAAAATFNRVDVRRPSLALTANSSTVNISELSAFTEKGILEATASVSQTPQRQTHISLNGRGVPVNILQQWGWPELPLTGDGNIQLTASGDIQANVPLKPTVSGQLHAVNAAKQQVTQTMNAGIVSSGEVTSTEPVR | 6.81 ± 0.67 | 6.85 ± 0.84 | 6.19 ± 0.067 | 6.3 ± 0.072 | 6.28 ± 0.42 | 3.2 ± 0.15 | 5.9 ± 0.12 | 11.4 ± 1 | 6.16 ± 0.12 | 12.6 ± 0.84 | 6.26 ± 0.23 | 12 ± 0.2 |
| MKFIIKLFPEITIKSQSVRLRFIKILTGNIRNVLKHYDETLAVVRHWDNIEVRAKDENQRLAIRDALTRIPGIHHILEVEDVPFTDMHDIFEKALVQYRDQLEGKTFCVRVKRRGKHDFSSIDVERYVGGGLNQHIESARVKLTNPDVTVHLEVEDDRLLLIKGRYEGIGGFPIGTQEDVLSLISGGFDSGVSSYMLMRRGCRVHYCFFNLGGAAHEIGVRQVAHYLWNRFGSSHRVRFVAINFEPVVGEILEKIDDGQMGVILKRMMVRAASKVAERYGVQALVTGEALGQVSSQTLTNLRLIDNVSDTLILRPLISYDKEHIINLARQIGTEDFARTMPEYCGVISKSPTVKAVKSKIEAEEEKFDFSILDKVVEEANNVDIREIAQQTEQEVVEVETVNGFGPNDVILDIRSIDEQEDKPLKVEGIDVVSLPFYKLSTKFGDLDQNKTWLLWCERGVMSRLQALYLREQGFNNVKVYRP | 4.16 ± 1 | 2.72 ± 0.25 | 2.86 ± 0.2 | 3.57 ± 0.082 | 2.827 ± 0.0041 | 3 ± 0.2 | 4.62 ± 0.53 | 7.48 ± 0.32 | 2.952 ± 0.021 | 3.99 ± 0.086 | 5.66 ± 1.4 | 8.76 ± 0.25 |
| MKFKVIALAALMGISGMAAQANELPDGPHIVTSGTASVDAVPDIATLAIEVNVAAKDAATAKKQADERVAQYISFLELNQIAKKDISSANLRTQPDYDYQDGKSILKGYRAVRTVEVTLRQLDKLNSLLDGALKAGLNEIRSVSLGVAQPDAYKDKARKAAIDNAIHQAQELANGFHRKLGPVYSVRYHVSNYQPSPMVRMMKADAAPVSAQETYEQAAIQFDDQVDVVFQLEPVDQQPAKTPAAQ [P0ADS6] | 6.45 ± 0.46 | 6.67 ± 0.7 | – | 6.77 ± 1.2 | 5.98 ± 0.096 | 3.2 ± 0.14 | 5.88 ± 0.43 | 12.1 ± 1.4 | 5.83 ± 0.65 | 12.1 ± 1.2 | 5.59 ± 0.14 | 11.7 ± 0.76 |
| MKFPGKRKSKHYFPVNARDPLLQQFQPENETSAAWVVGIDQTLVDIEAKVDDEFIERYGLSAGHSLVIEDDVAEALYQELKQKNLITHQFAGGTIGNTMHNYSVLADDRSVLLGVMCSNIEIGSYAYRYLCNTSSRTDLNYLQGVDGPIGRCFTLIGESGERTFAISPGHMNQLRAESIPEDVIAGASALVLTSYLVRCKPGEPMPEATMKAIEYAKKYNVPVVLTLGTKFVIAENPQWWQQFLKDHVSILAMNEDEAEALTGESDPLLASDKALDWVDLVLCTAGPIGLYMAGFTEDEAKRKTQHPLLPGAIAEFNQYEFSRAMRHKDCQNPLRVYSHIAPYMGGPEKIMNTNGAGDGALAALLHDITANSYHRSNVPNSSKHKFTWLTYSSLAQVCKYANRVSYQVLNQHSPRLTRGLPEREDSLEESYWDR [P0AEW6] | 4.78 ± 0.21 | 5.5 ± 1.9 | 4.38 ± 0.28 | 6.01 ± 2.3 | 4.03 ± 0.31 | 2.86 ± 0.38 | 5.87 ± 1.5 | 8.23 | 4.14 ± 0.24 | 8.14 ± 1.9 | 5.07 ± 0.35 | 9.56 ± 0.61 |
| MKFTQRLSLRVRLTLIFLILASVTWLLSSFVAWKQTTDNVDELFDTQLMLFAKRLSTLDLNEINAADRMAQTPNRLKHGHVDDDALTFAIFTHDGRMVLNDGDNGEDIPYSYQREGFADGQLVGEDDPWRFVWMTSPDGKYRIVVGQEWEYREDMALAIVAGQLIPWLVALPIMLIIMMVLLGRELAPLNKLALALRMRDPDSEKPLNATGVPSEVRPLVESLNQLFARTHAMMVRERRFTSDAAHELRSPLTALKVQTEVAQLSDDDPQARKKALLQLHSGIDRATRLVDQLLTLSRLDSLDNLQDVAEIPLEDLLQSSVMDIYHTAQQAKIDVRLTLNAHSIKRTGQPLLLSLLVRNLLDNAVRYSPQGSVVDVTLNADNFIVRDNGPGVTPEALARIGERFYRPPGQTATGSGLGLSIVQRIAKLHGMNVEFGNAEQGGFEAKVSW | 5.9 ± 0.21 | 6.26 ± 0.56 | 6.38 ± 0.11 | – | 5.66 ± 0.13 | 3.19 | – | 14.6 ± 1.6 | 5.98 ± 0.52 | 14.08 ± 0.14 | 6.13 ± 0.39 | 12.4 ± 3.3 |
